Reference: patent publication US20210388053A1
Where a chain is given by its changes, count along the chain named. In names and notes the source's numbering stands. Several values for one entry are separate records, joined by “and”; a condition that tells them apart may be missing. Identical values can stand only once.

B1: variant canine IgG-B Fc polypeptide L(24)M (protein, not shown: small tags and cut ends)
chain: CPAPEMLGGPSVFIFPPKPKDTLMIARTPEVTCVVVDLDPEDPEVQISWFVDGKQMQTAKTQPREEQFNGTYRVVSVLPIGHQDWLKGKQFTCKVNNKALPSPIERTISKARGQAHQPSVYVLPPSREELSKNTVSLTCLIKDFFPPDIDVEWQSNGQQEPESKYRTTPPQLDEDGSYFLYSKLSVDKSRWQRGDTFICAVMHEALHNHYTQESLSHSPGK
B2: variant canine IgG-B Fc polypeptide L(24)S (protein, not shown: small tags and cut ends)
chain: B1 chain with M24S
B3: variant canine IgG-B Fc polypeptide L(24)F (protein, not shown: small tags and cut ends)
chain: B1 chain with M24F
B4: variant canine IgG-B Fc polypeptide L(24)Y (protein, not shown: small tags and cut ends)
chain: B1 chain with M24Y
B5: wild-type canine IgG-B Fc polypeptide (protein, not shown: small tags and cut ends)
chain: B1 chain with M24L
B6: YTE variant canine IgG-B Fc polypeptide (Leu24Tyr, Ala26Thr, Thr28Glu) (protein, not shown: small tags and cut ends)
chain: B1 chain with M24Y, A26T, T28E
B7: caninized anti-canine IL31 clone M14 antibody with YYY variant canine IgG-B Fc polypeptide (antibody)
heavy: EVQLVESGPSLVKPGGSLRLTCSVTGDSITSGYWNWIRKFPGNKLEYMGYISYSGITDYNPSLKSRITISRDTSKNQYYLQLNSVTTEDTATYYCARYGNYGYAMDYWGQGTLVTVSSASTTAPSVFPLAPSCGSTSGSTVALACLVSGYFPEPVTVSWNSGSLTSGVHTFPSVLQSSGLYSLSSMVTVPSSRWPSETFTCNVAHPASKTKVDKPVPKRENGRVPRPPDCPKCPAPEMLGGPSVFIFPPKPKDTLYIARTPEVTCVVVDLDPEDPEVQISWFVDGKQMQTAKTQPREEQFNGTYRVVSVLPIGHYDWLKGKQFTCKVNNKALPSPIERTISKARGQAHQPSVYVLPPSREELSKNTVSLTCLIKDFFPPDIDVEWQSNGQQEPESKYRTTPPQLDEDGSYFLYSKLSVDKSRWQRGDTFICAVMHEALHYHYTQESLSHSPGK
light: DIVMTQSPASLSVSLGQRATISCRASESVDTYGNSFMHWYQQKPGQSPKLLIYRASNLESGIPARFGGSGSGTDFTLTIDPVQADDVATYYCQQSYEDPWTFGGGTKLEIKRNDAQPAVYLFQPSPDQLHTGSASVVCLLNSFYPKDINVKWKVDGVIQDTGIQESVTEQDKDSTYSLSSTLTMSSTEYLSHELYSCEITHKSLPSTLIKSFQRSECQRVD
B8: caninized anti-canine IL31 clone M14 antibody with wild-type canine IgG-B Fc polypeptide (antibody)
heavy: B7 heavy with Y256L, Y315Q, Y440N
light: B7 light
B9: variant canine IgG-B Fc polypeptide Y0Y (Leu24Tyr, Asn208Tyr) (protein, not shown: small tags and cut ends)
chain: B1 chain with M24Y, N208Y
B10: variant canine IgG-B Fc polypeptide YYF (Leu24Tyr, Gln83Tyr, Asn208Phe) (protein, not shown: small tags and cut ends)
chain: B1 chain with M24Y, Q83Y, N208F
B11: variant canine IgG-B Fc polypeptide YYH (Leu24Tyr, Gln83Tyr, Asn208His) (protein, not shown: small tags and cut ends)
chain: B1 chain with M24Y, Q83Y, N208H
B12: variant canine IgG-B Fc polypeptide 0YR (Gln83Tyr, Asn208Arg) (protein, not shown: small tags and cut ends)
chain: B1 chain with M24L, Q83Y, N208R
B13: variant canine IgG-B Fc polypeptide 0YW (Gln83Tyr, Asn208Trp) (protein, not shown: small tags and cut ends)
chain: B1 chain with M24L, Q83Y, N208W
B14: variant canine IgG-B Fc polypeptide Y0F (Leu24Tyr, Asn208Phe) (protein, not shown: small tags and cut ends)
chain: B1 chain with M24Y, N208F
B15: variant canine IgG-B Fc polypeptide Y0W (Leu24Tyr, Asn208Trp) (protein, not shown: small tags and cut ends)
chain: B1 chain with M24Y, N208W
B16: variant canine IgG-B Fc polypeptide YYR (Leu24Tyr, Gln83Tyr, Asn208Arg) (protein, not shown: small tags and cut ends)
chain: B1 chain with M24Y, Q83Y, N208R
B17: variant canine IgG-B Fc polypeptide 0YF (Gln83Tyr, Asn208Phe) (protein, not shown: small tags and cut ends)
chain: B1 chain with M24L, Q83Y, N208F
B18: variant canine IgG-B Fc polypeptide Y0R (Leu24Tyr, Asn208Arg) (protein, not shown: small tags and cut ends)
chain: B1 chain with M24Y, N208R
B19: variant canine IgG-B Fc polypeptide YYY (Leu24Tyr, Gln83Tyr, Asn208Tyr) (protein, not shown: small tags and cut ends)
chain: B1 chain with M24Y, Q83Y, N208Y
B20: variant canine IgG-B Fc polypeptide 0YH (Gln83Tyr, Asn208His) (protein, not shown: small tags and cut ends)
chain: B1 chain with M24L, Q83Y, N208H
B21: variant canine IgG-B Fc polypeptide 0YY (Gln83Tyr, Asn208Tyr) (protein, not shown: small tags and cut ends)
chain: B1 chain with M24L, Q83Y, N208Y
B22: variant canine IgG-B Fc polypeptide YYW (Leu24Tyr, Gln83Tyr, Asn208Trp) (protein, not shown: small tags and cut ends)
chain: B1 chain with M24Y, Q83Y, N208W
B23: variant canine IgG-B Fc polypeptide Y0H (Leu24Tyr, Asn208His) (protein, not shown: small tags and cut ends)
chain: B1 chain with M24Y, N208H
B24: caninized anti-canine IL31 clone M14 antibody with YTE variant canine IgG-B Fc polypeptide (antibody)
heavy: B7 heavy with A258T, T260E, Y315Q, Y440N
light: B7 light
B25: caninized anti-canine IL31 clone M14 antibody with Y0Y variant canine IgG-B Fc polypeptide (antibody)
heavy: B7 heavy with Y315Q
light: B7 light

Target: canine FcRn/B2M protein complex (canine FcRn ECD with C-terminal poly-His tag and canine Beta-2-Microglobulin) (canine)
Sequence (chain, as listed by the source limits assumed, form in doubt, chain 1 of 2): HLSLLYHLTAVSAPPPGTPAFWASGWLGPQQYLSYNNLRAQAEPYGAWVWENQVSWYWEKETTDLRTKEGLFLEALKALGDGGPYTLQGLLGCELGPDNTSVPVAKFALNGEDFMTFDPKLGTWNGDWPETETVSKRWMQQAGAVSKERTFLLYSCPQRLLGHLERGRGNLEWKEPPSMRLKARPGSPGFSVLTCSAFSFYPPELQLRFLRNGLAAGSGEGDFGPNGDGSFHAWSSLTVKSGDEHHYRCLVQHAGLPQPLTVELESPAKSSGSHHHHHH
Sequence (b2m, as listed by the source limits assumed, form in doubt, chain 2 of 2): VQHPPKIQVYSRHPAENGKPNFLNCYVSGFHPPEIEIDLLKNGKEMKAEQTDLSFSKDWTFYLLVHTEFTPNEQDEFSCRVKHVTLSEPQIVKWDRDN
Assay: SPR Biacore T200, pH 6.0; biotinylated FcRn/B2M immobilized, Fc as analyte

Row | Binder | koff
1 | B1 | 0.126 s⁻¹
2 | B2 | 0.241 s⁻¹
3 | B3 | 0.0631 s⁻¹ and 0.0847 s⁻¹
4 | B4 | 0.0138 s⁻¹
5 | B5 | 0.122 s⁻¹

Target: canine FcRn/B2M protein complex (canine FcRn ECD with C-terminal poly-His tag and canine Beta-2-Microglobulin) (canine)
Assay: SPR Biacore T200 steady state, pH 6.0, 25 C; Fc on CM5 chip, FcRn/B2M 12.5-200 nM

Row | Binder | Kd [nM]
6 | B1 | 406
7 | B3 | 367
8 | B6 | 86.2
9 | B4 | 113
10 | B5 | 1250

Target: canine FcRn/B2M protein complex (canine FcRn ECD with C-terminal poly-His tag and canine Beta-2-Microglobulin) (canine)
Assay: SPR Biacore T200, pH 6.0; biotinylated FcRn/B2M captured on streptavidin, antibody 1.5625-100 nM as analyte, kinetic fit

Row | Binder | Kd [nM] | koff [s⁻¹] | kon [M⁻¹ s⁻¹]
11 | B7 | 3.84 | 0.000869 | 227000

Target: canine FcRn/B2M protein complex (canine FcRn ECD with C-terminal poly-His tag and canine Beta-2-Microglobulin) (canine)
Assay: SPR Biacore T200, pH 6.0; biotinylated FcRn/B2M captured on streptavidin, antibody 18.75-1200 nM, steady state analysis

Row | Binder | Kd [nM]
12 | B8 | 410

Target: canine FcRn/B2M protein complex (canine FcRn ECD with C-terminal poly-His tag and canine Beta-2-Microglobulin) (canine)
Assay: SPR Biacore 8K, pH 6.0, 25 C; Fc captured by SASA tag on BSA chip, FcRn/B2M 400 nM as analyte

Row | Binder | Kd [nM] | koff [s⁻¹] | kon [M⁻¹ s⁻¹]
13 | B9 | 0.49 | 0.00014 | 286000
14 | B10 | – | – | 271000
15 | B11 | 1.7 | 0.000612 | 360000
16 | B6 | 31 | 0.0205 | 662000
17 | B12 | 9.45 | 0.00655 | 693000
18 | B13 | 6.1 | 0.00213 | 348000
19 | B14 | 0.787 | 0.000221 | 281000
20 | B15 | 3.72 | 0.000929 | 250000
21 | B16 | 1.84 | 0.000638 | 347000
22 | B17 | 3.1 | 0.00118 | 380000
23 | B18 | 8.64 | 0.00295 | 341000
24 | B19 | – | – | 262000
25 | B20 | 11.8 | 0.00791 | 673000
26 | B21 | 2.03 | 0.00086 | 425000
27 | B22 | 1.93 | 0.000496 | 256000
28 | B23 | 8.11 | 0.00271 | 334000
29 | B5 | 102 | 0.0856 | 838000

Target: canine FcRn/B2M protein complex (canine FcRn ECD with C-terminal poly-His tag and canine Beta-2-Microglobulin) (canine)
Assay: SPR Biacore T200, pH 6.0; biotinylated FcRn/B2M captured on streptavidin, antibody 12.5-800 nM, steady state analysis

Row | Binder | Kd [nM]
30 | B24 | 231

Target: canine FcRn/B2M protein complex (canine FcRn ECD with C-terminal poly-His tag and canine Beta-2-Microglobulin) (canine)
Assay: SPR Biacore 8K, pH 6.0, 25 C; Fc captured by SASA tag on BSA chip, FcRn/B2M 400 nM as analyte; dissociation exceeded the detection limit

Row | Binder | Kd [nM] | koff [s⁻¹]
31 | B10 | 0.000602 | 1.63e-07
32 | B19 | 0.000713 | 1.87e-07

Target: canine FcRn/B2M protein complex (canine FcRn ECD with C-terminal poly-His tag and canine Beta-2-Microglobulin) (canine)
Assay: SPR Biacore T200, pH 6.0; biotinylated FcRn/B2M captured on streptavidin, antibody 2.5-160 nM as analyte, kinetic fit

Row | Binder | Kd [nM] | koff [s⁻¹] | kon [M⁻¹ s⁻¹]
33 | B25 | 15.6 | 0.00262 | 168000
